Test results published in the supplement of paper PMC10567573.

B1: ALDH8A1 (parent)
chain: FTGSQPTAERITQLSAPHCKKLSL

Variants of: B1
Assay: protein stability index of a GFP-peptide fusion (GPS, HEK-293T) (PSI 1-6); higher = more stable
Conditions: c terminus: a fixed tail appended
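Also: lentivirally expressed fusions sorted by FACS into six bins by GFP to DsRed ratio, PSI derived from sequencing read proportions per bin multiplied by bin number.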

Question: Which protein stability index does the source give for FTGSQPTAERITQLGAPHCKKLSL [S15G] here?
Answer: 2.5

Question: Which protein stability index does the source give for FTGSQPTAERITQLFAPHCKKLSL [S15F] here?
Answer: 3.03

Question: For FTGSQPTAERITQLPAPHCKKLSL [S15P], which protein stability index is on record?
Answer: 2.32

Question: Which protein stability index does the source give for FTGSQPTAERITQLLAPHCKKLSL [S15L] here?
Answer: 2.87

Question: With FTGSQPTAERITQLMAPHCKKLSL [S15M] as the variant, how does the protein stability index read?
Answer: 2.13

Question: With FTGSQPTAERITQLCAPHCKKLSL [S15C] as the variant, how does the protein stability index read?
Answer: 2.34

Question: Which protein stability index does the source give for FTGSQPTAERITQLEAPHCKKLSL [S15E] here?
Answer: 2.37

Question: For FTGSQPTAERITQLNAPHCKKLSL [S15N], which protein stability index is on record?
Answer: 1.91

Question: Which protein stability index does the source give for NTGSQPTAERITQLSAPHCKKLSL [F1N] here?
Answer: 4.34

Question: For STGSQPTAERITQLSAPHCKKLSL [F1S], which protein stability index is on record?
Answer: 3.92

Question: With KTGSQPTAERITQLSAPHCKKLSL [F1K] as the variant, how does the protein stability index read?
Answer: 3.96

Question: For VTGSQPTAERITQLSAPHCKKLSL [F1V], which protein stability index is on record?
Answer: 3.82

Question: With FTGSQPTAERITELSAPHCKKLSL [Q13E] as the variant, how does the protein stability index read?
Answer: 2.5

Question: Which protein stability index does the source give for FTGSQPTAERITNLSAPHCKKLSL [Q13N] here?
Answer: 2.2

Question: Which protein stability index does the source give for FTGSQPTAERITRLSAPHCKKLSL [Q13R] here?
Answer: 1.91

Question: For FTGSQPTAERITILSAPHCKKLSL [Q13I], which protein stability index is on record?
Answer: 1.35

Question: For FTGSQPTAERITDLSAPHCKKLSL [Q13D], which protein stability index is on record?
Answer: 2.61

Question: With FTGSQPTAERITGLSAPHCKKLSL [Q13G] as the variant, how does the protein stability index read?
Answer: 2.31

Question: Which protein stability index does the source give for FTGSQPTAERITCLSAPHCKKLSL [Q13C] here?
Answer: 2

Question: For FTGSQPTAERITVLSAPHCKKLSL [Q13V], which protein stability index is on record?
Answer: 1.69

Question: For FTGSQPTAERITSLSAPHCKKLSL [Q13S], which protein stability index is on record?
Answer: 2.12

Question: For FTGSQPTAERITKLSAPHCKKLSL [Q13K], which protein stability index is on record?
Answer: 2.48

Question: For FTGSQPTAERITPLSAPHCKKLSL [Q13P], which protein stability index is on record?
Answer: 2.16

Question: For FTGSQPTAERITQLSAPICKKLSL [H18I], which protein stability index is on record?
Answer: 2.55

Question: Which protein stability index does the source give for FTGSQPTAERITQLSAPVCKKLSL [H18V] here?
Answer: 3

Question: Which protein stability index does the source give for FTGSQPTAERITQLSAPACKKLSL [H18A] here?
Answer: 2.05

Question: For FTGSQPTAERITQLSAPGCKKLSL [H18G], which protein stability index is on record?
Answer: 2.05

Question: With FTGSQPTAERITQLSAPWCKKLSL [H18W] as the variant, how does the protein stability index read?
Answer: 1.85

Question: For FTGSQPTAERITQLSAPFCKKLSL [H18F], which protein stability index is on record?
Answer: 2.25

Question: Which protein stability index does the source give for FTGSQPTAERITQLSAPECKKLSL [H18E] here?
Answer: 1.78

Question: Which protein stability index does the source give for FTGSQPTAEKITQLSAPHCKKLSL [R10K] here?
Answer: 1.81

Question: For FTGSQPTAEHITQLSAPHCKKLSL [R10H], which protein stability index is on record?
Answer: 2.3

Question: For FTGSQPTAEIITQLSAPHCKKLSL [R10I], which protein stability index is on record?
Answer: 1.92

Question: With FTGSQPTAELITQLSAPHCKKLSL [R10L] as the variant, how does the protein stability index read?
Answer: 2.11

Question: For FTGSQPTAEEITQLSAPHCKKLSL [R10E], which protein stability index is on record?
Answer: 2.51

Question: With FTGSQPTAEGITQLSAPHCKKLSL [R10G] as the variant, how does the protein stability index read?
Answer: 2.28

Question: With FTGSQPTAETITQLSAPHCKKLSL [R10T] as the variant, how does the protein stability index read?
Answer: 2.39

Question: With FTGSQPTAEMITQLSAPHCKKLSL [R10M] as the variant, how does the protein stability index read?
Answer: 1.97

Question: For FTGSQPTAEWITQLSAPHCKKLSL [R10W], which protein stability index is on record?
Answer: 1.93

Question: For FTGSQPTAEAITQLSAPHCKKLSL [R10A], which protein stability index is on record?
Answer: 2.31

Question: Which protein stability index does the source give for FCGSQPTAERITQLSAPHCKKLSL [T2C] here?
Answer: 1.86

Question: Which protein stability index does the source give for FKGSQPTAERITQLSAPHCKKLSL [T2K] here?
Answer: 3.42

Question: For FMGSQPTAERITQLSAPHCKKLSL [T2M], which protein stability index is on record?
Answer: 3.07

Question: With FVGSQPTAERITQLSAPHCKKLSL [T2V] as the variant, how does the protein stability index read?
Answer: 1.02

Question: Which protein stability index does the source give for FIGSQPTAERITQLSAPHCKKLSL [T2I] here?
Answer: 2.07

Question: Which protein stability index does the source give for FPGSQPTAERITQLSAPHCKKLSL [T2P] here?
Answer: 3.41

Question: For FQGSQPTAERITQLSAPHCKKLSL [T2Q], which protein stability index is on record?
Answer: 3.24

Question: Which protein stability index does the source give for FGGSQPTAERITQLSAPHCKKLSL [T2G] here?
Answer: 3.19

Question: Which protein stability index does the source give for FWGSQPTAERITQLSAPHCKKLSL [T2W] here?
Answer: 2.53

Question: Which protein stability index does the source give for FTGSQPTAERITQLSKPHCKKLSL [A16K] here?
Answer: 2.03

Question: Which protein stability index does the source give for FTGSQPTAERITQLSWPHCKKLSL [A16W] here?
Answer: 1.45

Question: With FTGSQPTAERITQLSYPHCKKLSL [A16Y] as the variant, how does the protein stability index read?
Answer: 2.05

Question: For FTGSQPTAERITQLSEPHCKKLSL [A16E], which protein stability index is on record?
Answer: 2.26

Question: Which protein stability index does the source give for FTGSQPTAVRITQLSAPHCKKLSL [E9V] here?
Answer: 1.46

Question: Which protein stability index does the source give for FTGSQPTAPRITQLSAPHCKKLSL [E9P] here?
Answer: 2.05

Question: For FTGSQPTAYRITQLSAPHCKKLSL [E9Y], which protein stability index is on record?
Answer: 3.14

Question: For FTGSQPTAWRITQLSAPHCKKLSL [E9W], which protein stability index is on record?
Answer: 3.33

Question: For FTGSQPTAQRITQLSAPHCKKLSL [E9Q], which protein stability index is on record?
Answer: 2.09

Question: With FTGSQPTAGRITQLSAPHCKKLSL [E9G] as the variant, how does the protein stability index read?
Answer: 2.1

Question: For FTGSQPTADRITQLSAPHCKKLSL [E9D], which protein stability index is on record?
Answer: 2.52

Question: Which protein stability index does the source give for FTGSQPTARRITQLSAPHCKKLSL [E9R] here?
Answer: 1.96

Question: For FTGSQPTAHRITQLSAPHCKKLSL [E9H], which protein stability index is on record?
Answer: 2.15

Question: With FTGSQPTAKRITQLSAPHCKKLSL [E9K] as the variant, how does the protein stability index read?
Answer: 2.06

Question: For FTGSRPTAERITQLSAPHCKKLSL [Q5R], which protein stability index is on record?
Answer: 2.39

Question: For FTGSTPTAERITQLSAPHCKKLSL [Q5T], which protein stability index is on record?
Answer: 2.24

Question: For FTGSHPTAERITQLSAPHCKKLSL [Q5H], which protein stability index is on record?
Answer: 2.14

Question: Which protein stability index does the source give for FTGSFPTAERITQLSAPHCKKLSL [Q5F] here?
Answer: 1.68

Question: With FTGSIPTAERITQLSAPHCKKLSL [Q5I] as the variant, how does the protein stability index read?
Answer: 2.39

Question: Which protein stability index does the source give for FTGSWPTAERITQLSAPHCKKLSL [Q5W] here?
Answer: 4.02

Question: Which protein stability index does the source give for FTGSYPTAERITQLSAPHCKKLSL [Q5Y] here?
Answer: 2.36

Question: For FTGSVPTAERITQLSAPHCKKLSL [Q5V], which protein stability index is on record?
Answer: 2.38

Question: With FTGSPPTAERITQLSAPHCKKLSL [Q5P] as the variant, how does the protein stability index read?
Answer: 2.99

Question: With FTGSQPTAERITQLSAPHMKKLSL [C19M] as the variant, how does the protein stability index read?
Answer: 1.96

Question: With FTGSQPTAERITQLSAPHFKKLSL [C19F] as the variant, how does the protein stability index read?
Answer: 2.91

Question: With FTGSQPTAERITQLSAPHAKKLSL [C19A] as the variant, how does the protein stability index read?
Answer: 2.35

Question: For FTGSQPTAERITQLSAPHKKKLSL [C19K], which protein stability index is on record?
Answer: 2.75

Question: Which protein stability index does the source give for FTGSQPTAERITQLSAPHDKKLSL [C19D] here?
Answer: 2.73

Question: With FTGSQPTAERITQLSAPHLKKLSL [C19L] as the variant, how does the protein stability index read?
Answer: 1.91

Question: For FTGSQPTAERITQLSAPHWKKLSL [C19W], which protein stability index is on record?
Answer: 1.6

Question: Which protein stability index does the source give for FTGSQPTAERITQLSAPHVKKLSL [C19V] here?
Answer: 2.04

Question: Which protein stability index does the source give for FTGSQPTAERYTQLSAPHCKKLSL [I11Y] here?
Answer: 2.18

Question: For FTGSQPTAERCTQLSAPHCKKLSL [I11C], which protein stability index is on record?
Answer: 2.6

Question: For FTGSQPTAERMTQLSAPHCKKLSL [I11M], which protein stability index is on record?
Answer: 2.61

Question: With FTGSQPTAERHTQLSAPHCKKLSL [I11H] as the variant, how does the protein stability index read?
Answer: 2.96

Question: With FTGSQPTAERFTQLSAPHCKKLSL [I11F] as the variant, how does the protein stability index read?
Answer: 2.9

Question: For FTGSQPTAERTTQLSAPHCKKLSL [I11T], which protein stability index is on record?
Answer: 2.84

Question: Which protein stability index does the source give for FTGSQPTAERETQLSAPHCKKLSL [I11E] here?
Answer: 2.73

Question: With FTGSQPTAERWTQLSAPHCKKLSL [I11W] as the variant, how does the protein stability index read?
Answer: 2.08

Question: For FTGSQPTAERNTQLSAPHCKKLSL [I11N], which protein stability index is on record?
Answer: 2.4

Question: With FTGSQFTAERITQLSAPHCKKLSL [P6F] as the variant, how does the protein stability index read?
Answer: 1.9

Question: With FTGSQRTAERITQLSAPHCKKLSL [P6R] as the variant, how does the protein stability index read?
Answer: 2.15

Question: With FTGSQQTAERITQLSAPHCKKLSL [P6Q] as the variant, how does the protein stability index read?
Answer: 2.38

Question: Which protein stability index does the source give for FTGSQATAERITQLSAPHCKKLSL [P6A] here?
Answer: 1.94

Question: Which protein stability index does the source give for FTGSQSTAERITQLSAPHCKKLSL [P6S] here?
Answer: 2.1
